Measurements taken from patent US20230226096A1 (Orna Therapeutics, Inc., priority 2020, published 2023).

Test system: HEK293 cells
Type: cell-based, human
Settings: luminescence from secreted Gluc in supernatant 24 hours after transfection of HEK293 cells; circular RNA encoding Gluc with the named IRES (UTR truncated to 675 nt)

B1: Goat torovirus (nucleic acid, listed as Torovirus sp.)
DNA: GTACTTACAAGCGGGTTAAACCGCCCTCCGGAACGGTTACAACCCCCTCCCGAACGTGCGCTTGACGTGACTGGTTCTCAGTCTGGCTTTCTGAGAAATACTCCAGGGTTGTATCCCACCATCTTGACCTCTGGTCATTTTGGTAACACCATAACCAAACAAACTCTACACACCTAACCCACCTCCAGCTTGCTGCAGGCCTTTTGGACTAAACGGGTTTAGGTGTTTTGTGACCAACTCGTCTACCCACCTCCAGTTTTACTGCAGGCCTTTTTGGACTAAACGGCTTTAGACTTTTGTGGTTAGTTTTTAACTACCCACTGTTTAGCCGCCAACCTGATTTTCATTGTTGTAAAATTTTGTGTTTATACACTATTTTCATACGGTTGGCAGTTTGTTTGGTTGTTTGCACAGTTTTTGTTGATACCAATTTTTACTGTGCTTTTAGTGTATTCTGCTAAGGCTGTATTTTACATACTTAGTTTGGTTGAAGCAATTTTTACAACATTTATATTGTTTTTGATTTCTAAGGTAAAGAGTCTTAGGAAACACCATAGACGCCATTCTTGTGGTGTCTAGTTCCAACTAATCTGGCAAACAAGTACCAAGTCATTGACTCACTTTGGAGTGAGACTTACGAGTACCAATTTGCCTATTTCGGACATCCATATAAAG
Question: B1 was tested. Which Expression did it give?
Answer: 1.19E+05

B2: Feline infectious peritonitis virus (nucleic acid)
DNA: ACTTTTAAAGTAAAGTGAGTGTAGCGTGGCTATAACTCTTCTTTTACTTTAACTAGCCTTGTGCTAGATTTGTCTTCGGACACCAACTCGAACTAAACGAAATATTTGTCTCTCTATGAAACCATAGAAGACAAGCGTTGATTATTTCACCAGTTTGGCAATCACTCCTAGGAACGGGGTTGAGAGAACGGCGCACCAGGGTTCCGTCCCTGTTTGGTAAGTCGTCTAGTATTAGCTGCGGCGGTTCCGCCCGTCGTAGTTGGGTAGACCGGGTTCCGTCCTGTGATCTCCCTCGCCGGCCGCCAGGAGA
Question: Which Expression does the source give for B2 here?
Answer: 1.35E+05

B3: Farmington virus (nucleic acid)
DNA: ACGACGCATAAGCAGAGAAACATAAGAGACTATGTTCATAGTCACCCTGTATTCATTATTGACTTTTATGACCTATTATTAGACCCTTCACGGGTAAATCCTTCTCCTTGCAGTTCTCGCCAAGTACCTCCAAAGTCAGAACG
Question: With B3 as the molecule, how does the Expression read?
Answer: 1.22E+05

B4: Avian infectious bronchitis virus (nucleic acid)
DNA: ACTTAAGATAGATATTAATATATATCTATTACACTAGCCTTGCGCTAGATTTTTAACTTAACAAAACGGACTTAAATACCTACAGCTGGTCCTCATAGGTGTTCCATTGCAGTGCACTTTAGTGCCCTGGATGGCACCTGGCCACCTGTCAGGTTTTTGTTATTAAAATCTTATTGTTGCTGGTATCACTGCTTGTTTTGCCGTGTCTCACTTTATACATCTGTTGCTTGGGCTACCTAGTGTCCAGCGTCCTACGGGCGTCGTGGCTGGTTCGAGTGCGAGGAACCTCTGGTTCATCTAGCGGTAGGCGGGTGTGTGGAAGTAGCACTTCAGACGTACCGGTTCTGTTGTGTGAAATACGGGGTCACCTCCCCCCACATACCTCTAAGGGCTTTTGAGCCTAGCGTTGGGCTACGTTCTCGCATAAGGTCGGCTATACGACGTTTGTAGGGGGTAGTGCCAAACAACCCCTGAGGTGACAGGTTCTGGTGGTGTTTAGTGAGCAGACATACAATAGACAGTGACAAC
Question: With B4 as the molecule, how does the Expression read?
Answer: 2.84E+05

B5: Human rhinovirus 1 (nucleic acid, listed as Rhinovirus sp.)
DNA: TTAAAACTGGGTGTGGGTTGTTCCCACCCACACCACCCAATGGGTGTTGTACTCTGTTATTCCGGTAACTTTGTACGCCAGTTTTTCCCTCCCCTCCCCATCCTTTTACGTAACTTAGAAGTTTTAAATACAAGACCAATAGTAGGCAACTCTCCAGGTTGTCTAAGGTCAAGCACTTCTGTTTCCCCGGTTGATGTTGATATGCTCCAACAGGGCAAAAACAACAGATACCGTTATCCGCAAAGTGCCTACACAGAGCTTAGTAGGATTCTGAAAGATCTTTGGTTGGTCGTTCAGCTGCATACCCAGCAGTAGACCTTGCAGATGAGGCTGGACATTCCCCACTGGTAACAGTGGTCCAGCCTGCGTGGCTGCCTGCGCACCTCTCATGAGGTGTGAAGCCAAAGATCGGACAGGGTGTGAAGAGCCGCGTGTGCTCACTTTGAGTCCTCCGGCCCCTGAATGCGGCTAACCTTAAACCTGCAGCCATGGCTCATAAGCCAATGAGTTTATGGTCGTAACGAGTAATTGCGGGATGGGACCGACTACTTTGGGTGTCCGTGTTTCACTTTTTCCTTTATTAATTGCTTATGGTGACAATATATATATTGATATATATTGGCATC
Question: Which Expression does the source give for B5 here?
Answer: 7.40E+07

B6: EV22 (nucleic acid)
DNA: CCTTATAACCCGACTTGCTGAGCTTCTATAGGAAAAAACCCTTTCCCAGCCTTGGGGTGGCTGGTCAATAAAAACCCCCATAGTAACCAACACCTAAGACAATTTGATCAACCCTATGCCTGGTCCCCACTATTCGAAGGCAACTTGCAATAAGAAGAGTGGAACAAGGATGCTTAAAGCATAGTGTAAATGATCTTTTCTAACCTGTATTATGTACAGGGTGGCAGATGGCGTGCCATAAATCTATTAGTGGGATACCACGCTTGTGGACCTTATGCCCACACAGCCATCCTCTAGTAAGTTTGTAAAATGTCTGGTGAGATGTGGGAACTTATTGGAAACAACAATTTGCTTAATAGCATCCTAGTGCCAGCGGAACAACATCTGGTAACAGATGCCTCTGGGGCCAAAAGCCAAGGTTTGACAGACCCATTAGGATTGGTTTCAAAACCTGAATTGTTGTGGAAGATATTCAGTACCTATCAATCTGGTAGTGGTGCAAACACTAGTTGTAAGGCCCACGAAGGATGCCCAGAAGGTACCCGCAGGTAACAAGAGACACTGTGGATCTGATCTGGGGCCAACTACCTCTATCAGGTGAGTTAGTTAAAAAACGTCTAGTGGGCCAAACCCAGGGGGGATCCCTGGTTTCCTTTTATTGTTAATATTGACATT
Question: With B6 as the molecule, how does the Expression read?
Answer: 1.95E+07

B7: Human TMEV-like cardiovirus (nucleic acid, listed as Cardiovirus sp.)
DNA: TCCGACGTGGTTGGAATTAACATCTTTTCCGACGAAAGTGCTATTATGCCTCCCCGATTGTGTGATGCTTTCTGCCCTGCTGGGCGGAGCGTCCTCGGGTTGAGAAACCTTGAATCTTTTCCTTTGGAGCCTTGGCTCCCCCGGTCTAAGCCGCTTGGAATATGACAGGGTTATTTTCCAAACTCTTTATTTCTACTTTCATGGGTTCTATCCATGAAAAGGGTATGTGTTGCCCCTTCCTTCTTTGGAGAATCTGCGCGGCGGTCTTTCCGTCTCTCAACAGGCGTGGATGCAACATGCCGGAAACGGTGAAGAAAACAGTTTTCTGTGGAAATTTAGAGTGGACATCGAAACAGCTGTAGCGACCTCACAGTAGCAGCGGATTCCCCTCTTGGCGACAAGAGCCTCTGCGGCCAAAAGCCCCGTGGATAAGATCCACTGCTGTGAGCGGTGCAACCCCAGCACCCTGGTTCGATGGCCATTCTCTATGGAACCAGAAAATGGTTTTCTCAAGCCCTCCGGTAGAGAAGCCAAGAATGTCCTGAAGGTACCCCGCGCGCGGGATCTGATCAGGAGACCAATTGGCAGTGCTTTACGCTGCCACTTTGGTTTAAAAACTGTCACAGCTTCTCCAAACCAAGTGGTCTTGGTTTTCCAATTTTGTTGACTGACAAT
Question: How did the Expression turn out when B7 was run?
Answer: 4.48E+07

B8: Megirivirus E (nucleic acid)
DNA: GCTTGGCAACCTCATATCGTTACTCTGCCGACCAGTCTGGGTCGTGTGGCCACACAATGGGATTCGTTCTGTTGTGTAGAGTCACATGGCATTACTGGGCTGATCGGTGGGGATCCGTTGCCACCCCTAAACCCTTACATTTACTGGACTGCTTTTCTTGGCCCCGGAATGATTCGCTCACCCGCGATGAGGACTGTTGTTCTTATTATGGCAGGATTACGCGTCTGGTCCGCGTAAGGACTAATTCCTATGTTTATACGTTACTACCTTGTTCTGAACGGTGGGCGCCACCCCGCCTAGTAGGATCCTGGCTTATCGTGTAGACCTCTAGGGACCACATTAGCTAGAGTGTAGGCTGCTATGGATGGAGTAGTGACCCCTTTTTGGGTATCACTCTCTAAGACTCCGGAATGTGTCATAGTACGCTGGAAATCCTTACTTGTTTTTCCATGAGGGGGAGGTGGTGCTGAAATATTGCAAGCCACCCCTCGGTTAAAACAGTTTGGTGCCGCTTATGCCATATTACCGCCCCTTGTAGTTGGGCTGTTTTTGCAGCTCCGGGTTAGTAGAGTACCATAGTGGACGCGGTGTTGGGAATCACCGCCTTGGCTGCACACTGCTTGATAGAGCTGCGGCTGGTCAAGCTAATTGTGGTATAACCAGTTGATTTGGCAT
Question: B8 was tested. Which Expression did it give?
Answer: 1.10E+07

B9: Hubei zhaovirus-like virus 1 (nucleic acid)
DNA: GTGCAGGATGGCCTTTCCCATCTTAAGTGGTTTGTAGGATTTCGTGGGTCCATACCCCCCGATTTCTTGGTACGTATTCCATGCACGGAGAATACGACCAAAACTCTTATTTCAAAAAATATTATTTTTTACTCTTGTGGGCTGAGTGCGACCCACCAGTTCCAGCTTAGCAACCTGGAAGTTGTTGGAGATTTATGGAACCAAATTACACATGCGTGGAGTGCCGCCACTCCGTATCTGTTCACTCATTACGCGATTAAGTTCTGCGACGAGACGAGCGAA
Question: B9 was tested. Which Expression did it give?
Answer: 1.03E+05

B10: Hubei tombus-like virus 9 (nucleic acid)
DNA: GGACCATCCAGGCAGGTGTAGGCTAGTACCCTCACCTGACCTGTCGCGATGTTTGGCTTTGTGAGGCTTGTGGGAGGATCCCTTGGCCCATGCATTGCTGCTGTCATCGTGAAAAATGTTGTATGCTCGCACCTGGCGTGGAGGAAACGGCATTTGACGGATGCTAAGGAGGATTTGAAGGTCCTCAACTCCCATGCCTTATTACAAGTCCCCTTTCCTTCAAGCTTCGAGCCCACGTCTGTGACGAGCAGAGGTGAGGTTGGAGTCAAGAGGAGTCCTATTCAAGCTGTTCGCAGCAAGAACCATAAAACTTTCATTGCTCAATGGGCAAGAGCGGCTAAGGCTCGGTTCTCGTTTGCACGACAGTGTGAGCGGAGCCCTGTAAATGTCGCGGCCCTTCATCGGTGGTTTGCATCGGAGTTTAAGAAAATTGGCATGAACTTGCTCCAGGTTTCGTACGTGATCGATGAGGTTGTTGAACTTAGTTTGGAACCAACGTATGAGCGTATGGTGTCCGAAACTAAGAAGCAATTCCGTCATCGGGCACGTATGGAATACTACAACGAGAAAAAATGCCTTGAAAAGATCCACTAGGAACGC
Question: Which Expression does the source give for B10 here?
Answer: 9.28E+04

B11: Hubei tombus-like virus 32 (nucleic acid)
DNA: TTCGGGTTTACCCGCGTAAGCGGCCACACTGACTGGTTGTCGGTGTTGAATTTGTATACCAGATGAGGAGACGTTACCACCGTCTCGGCAGTGCTACGTCTGGGAAAGGACTGTGATAGTGGACAGTCCTACCGTCTTTAGATACATTGCGTTGTGTATAGCCCGGGAGGGATTAACTAATAGCAACGCAATGCACACGGCGGTTCGGATTTGCTTGACTGATGGAAAGACATCTAAGTTCTAATTGAACC
Question: B11 was tested. Which Expression did it give?
Answer: 9.23E+04
